# According to paper PMC5668897 (Biochemistry and Biophysics Reports, 2015):
# B1: regulatory subunit of Thermotoga maritima acetohydroxyacid synthase (TmAHAS), TM0549 (natural protein)
# chain: MTDQIREHLVSMLVHNKPGVMRKVANLFARRGFNISSITVGESETPGLSRLVIMVKGDDKTIEQIEKQAYKLVEVVKVTPIDPLPENRVEREMALIKVRFDEDKQEIFQLVEIFRGKIIDVSREGAIIEITGARSKVEAFINLLPQKQVEEIARTGIVAMNRWNVKEGEGF
# Molecular target: the molecule itself
# Assay: SEC
protein,measurement,value
B1,stoichiometry N,2
